Data reported in PMC5777263.

Tests used:
[1] = target: Thiobacillus denitrificans Betaproteobacteria proteasome homolog (Td-BPH) (Thiobacillus denitrificans); test: SEC-SAXS; Shodex Kw-403 column, 20 °C, 20 mM HEPES-NaOH pH 8.0, 150 mM NaCl, 2 mM TCEP, 1% sucrose; Cm-BPH 8.25 mg/ml, Td-BPH 15 mg/ml; profiles fitted with dodecameric and tetradecameric crystal models (FoXS)
[2] = target: Thiobacillus denitrificans Betaproteobacteria proteasome homolog (Td-BPH) (Thiobacillus denitrificans); test: negative-stain electron microscopy; 0.1 mg/ml protein, 1% uranyl acetate, particles classified and averaged (EMAN2)
[3] = target: Thiobacillus denitrificans Betaproteobacteria proteasome homolog (Td-BPH) (Thiobacillus denitrificans); test: AUC + SEC-MALS; sedimentation velocity: 0.5 mg/ml protein in buffer A, 20 °C, 40,000 rpm; SEC-coupled multiangle light scattering; self-assembly
[4] = target: Thiobacillus denitrificans Betaproteobacteria proteasome homolog (Td-BPH) (Thiobacillus denitrificans); test: crystal structure; Td-BPH apo: hexagonal form P6(1)22 (100 mM sodium acetate pH 4.8, 1.2 M sodium nitrate) and orthorhombic form P2(1)2(1)2(1) (100 mM HEPES-NaOH pH 7.0, 600 mM NaF), 2.3 Å
[5] = target: Cupriavidus metallidurans Betaproteobacteria proteasome homolog (Cm-BPH) (Cupriavidus metallidurans); test: SEC-SAXS; Shodex Kw-403 column, 20 °C, 20 mM HEPES-NaOH pH 8.0, 150 mM NaCl, 2 mM TCEP, 1% sucrose; Cm-BPH 8.25 mg/ml, Td-BPH 15 mg/ml; profiles fitted with dodecameric and tetradecameric crystal models (FoXS)
[6] = target: Cupriavidus metallidurans Betaproteobacteria proteasome homolog (Cm-BPH) (Cupriavidus metallidurans); test: negative-stain electron microscopy; 0.1 mg/ml protein, 1% uranyl acetate, particles classified and averaged (EMAN2)
[7] = target: Cupriavidus metallidurans Betaproteobacteria proteasome homolog (Cm-BPH) (Cupriavidus metallidurans); test: AUC + SEC-MALS; sedimentation velocity: 0.5 mg/ml protein in buffer A, 20 °C, 40,000 rpm; SEC-coupled multiangle light scattering; self-assembly
[8] = target: Cupriavidus metallidurans Betaproteobacteria proteasome homolog (Cm-BPH) (Cupriavidus metallidurans); test: crystal structure; Cm-BPH, space group P6, 2.1 Å, two monomers in the ASU; dodecamer called non-native, malonate molecules intercalated in the intersubunit clefts

Row | stoichiometry N [1] [subunits] | stoichiometry N (subunits per ring) [2] | stoichiometry N [3] [subunits] | stoichiometry N [4] [subunits] | stoichiometry N [5] [subunits] | stoichiometry N (subunits per ring) [6] | stoichiometry N [7] [subunits] | stoichiometry N [8] [subunits] | Substance
1 | 14 | 7 | 14 | 14 |  |  |  |  | Thiobacillus denitrificans Betaproteobacteria proteasome homolog (Td-BPH) (enzyme)
2 |  |  |  |  | 14 | 7 | 13.8 | 12 | Cupriavidus metallidurans Betaproteobacteria proteasome homolog (Cm-BPH) (enzyme)
